Experimental data reported in patent publication US6602660.

Key:
[1] = biological target: Anti-human-MUC-1 mAb B27.29; assay: flow cytometry; soluble MUC-1 mucin (1 µg) inhibits B27.29 staining of 3 day PHA activated T-cells
[2] = biological target: Anti-human-MUC-1 mAb B27.29; assay: flow cytometry; soluble MUC-1 mucin (10 µg) inhibits B27.29 staining of 3 day PHA activated T-cells
[3] = biological target: Anti-human-MUC-1 mAb B27.29; assay: flow cytometry; soluble MUC-1 mucin (50 µg) inhibits B27.29 staining of 3 day PHA activated T-cells
[4] = biological target: MUC-1 mucin expressed on the surface of PHA activated human T-cells (human) (UniProt P15941); assay: cell-based or functional assay

Substance | % inhibition of binding [1] [%] | % inhibition of binding [2] [%] | % inhibition of binding [3] [%] | Effect on T-cell proliferation (% Inhibition) at 5 µg/ml [4] [%] | Effect on T-cell proliferation (% Inhibition) at 25 µg/ml [4] [%]
soluble MUC-1 mucin (from UniProt P15941 24-1097) | 25 | 45 | 65 |  | 
Anti-human-MUC-1 mAb B27.29 (antibody) |  |  |  | 58 | 82
